Earlier results, collected in article PMC3507713.
pKd: −log10 of the molar value.

Target: TRAIL (Homo sapiens) (UniProt P50591)
Sequence of UniProt P50591 (P50591 whole entry): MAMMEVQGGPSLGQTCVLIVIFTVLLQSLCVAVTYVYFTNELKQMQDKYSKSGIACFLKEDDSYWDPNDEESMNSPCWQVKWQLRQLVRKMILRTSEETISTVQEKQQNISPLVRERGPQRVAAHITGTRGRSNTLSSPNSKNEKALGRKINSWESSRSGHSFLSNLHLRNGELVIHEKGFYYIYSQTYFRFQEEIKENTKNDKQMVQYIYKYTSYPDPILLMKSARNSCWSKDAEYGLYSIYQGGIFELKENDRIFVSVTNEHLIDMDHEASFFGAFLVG

## Osteoprotegerin (from UniProt O00300)
  pKd: 6.40
